Laboratory results reported in paper doi:10.1101/2020.11.27.401935.

Key:
[1] = biological target: S. cerevisiae CIII2CIV1/2 respiratory supercomplex (S. cerevisiae (endogenous in strain BY 4741)) (UniProt P07143); test: cryo-EM structure
[2] = biological target: S. cerevisiae cytochrome c oxidase (complex IV), CIV (S. cerevisiae (endogenous in strain BY 4741)) (UniProt P00427); test: cryo-EM structure
[3] = biological target: S. cerevisiae cytochrome c oxidase (complex IV), CIV (S. cerevisiae (endogenous in strain BY 4741)) (UniProt P00427)

Sequence of UniProt P00427 (P00427 whole entry, looked up, one chain of several): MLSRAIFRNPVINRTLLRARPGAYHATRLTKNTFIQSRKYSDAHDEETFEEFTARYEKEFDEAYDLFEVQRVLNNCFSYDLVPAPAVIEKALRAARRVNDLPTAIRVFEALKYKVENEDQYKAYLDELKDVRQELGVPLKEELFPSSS
Sequence of UniProt P07143 (P07143 whole entry, looked up, one chain of several): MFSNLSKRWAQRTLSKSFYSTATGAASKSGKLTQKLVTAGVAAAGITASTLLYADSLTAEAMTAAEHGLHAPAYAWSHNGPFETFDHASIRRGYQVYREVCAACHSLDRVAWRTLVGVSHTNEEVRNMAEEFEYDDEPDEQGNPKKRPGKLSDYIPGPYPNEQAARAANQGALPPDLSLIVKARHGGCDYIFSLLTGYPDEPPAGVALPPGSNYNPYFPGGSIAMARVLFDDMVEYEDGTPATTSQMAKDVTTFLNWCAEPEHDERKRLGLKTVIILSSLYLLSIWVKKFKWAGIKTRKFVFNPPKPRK

stoichiometry N [1]: 1
cyt. c occupancy from integrated density (map with cyt. c at CIV) [2]: 1
percent of particle images with cyt. c bound at CIV [2]: 33%
cyt. c:O2 oxidoreductase activity of isolated CIV at a cyt. c:CIV ratio of one [3]: 3 e^-/s
Substance: S. cerevisiae cytochrome c (isoform-1 cyt. c) (from UniProt P00044 1-109) (natural protein)
